Measurements as given in the supplement of paper PMC7877785.
± gives the uncertainty stated by the source.

Test: self-splicing fitness, log relative to wild type (ln ratio); higher = more splicing; Tetrahymena group I intron in knt gene, E. coli kanamycin selection, DiMSum; sequences stand for … in CUCUCU…GGAGGGAAAAGUUAUCAGGCAUGCACCUGGUAGCUAGUCUUUAAACCAAUAGAUUGCAUCGGUUUAAAAGGCAAGACCGUCAAAUUGCGGGAAAGGGGUCAACAGCCGUUCAGUACCAAGUCUCAGGGGAAACUUUGAGAUGGCCUUGCAAAGGGUAUGGUAAUAAGCUGACGGACAUGGUCCUAACCACGCAGCCAAGUCCUAAGUCAACAGAUCUUCUGUUGAUAUGGAUGCAGUUCACAGACUAAAUGUCGGUCGGGGAAGAUGUAUUCUUCUCAUAAGAUAUAGUCGGACCUCUCCUUAAUGGGAGCUAGCGGAUGAAGUGAUGCAACACUGGAGCCGCUGGGAACUAAUUUGUAUGCGAAAGUAUAUUGAUUAGUUUUGGAGUACUCGUGGUCG
In short: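 Colonies from six replicate transformations of E. coli BL21(DE3) were pooled and amplicon-sequenced on an Illumina HiSeq 2500. The library placed an intron with all eight P1ex-region nucleotides randomised inside the knt kanamycin-resistance gene on pET-22b(+), and cells grew overnight at 37°C or 30°C on LB agar with or without 25 μg/mL kanamycin (plus 100 μg/mL carbenicillin, 50 μM IPTG, 0.2% rhamnose). Fitness is the DiMSum error-weighted combination of wild-type-normalised replicate fold changes, kanamycin versus none.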

Sequence	self-splicing fitness (ln) (30 °C)	self-splicing fitness (ln) (37 °C)
UAGCAGCAAUAUUACGCGGC	-3.84 ± 0.22	-1.6 ± 0.21
UCCCAGCAAUAUUACGCCAG	-2.08 ± 0.23	-2.27 ± 0.49
GAGCAGCAAUAUUACGCUAG	-2.4 ± 0.14	-1.53 ± 0.17
AUAUAGCAAUAUUACGAAGC	-2.96 ± 0.31	
CGAGAGCAAUAUUACGGCUU		-3.05 ± 0.4
AUCGAGCAAUAUUACGGAGA	-2.8 ± 0.22	-2.7 ± 0.29
AGUGAGCAAUAUUACGGCAG	-3.28 ± 0.28	-1.43 ± 0.24
GACAAGCAAUAUUACGGGAC	-2.13 ± 0.25	-1.02 ± 0.4
CAGCAGCAAUAUUACGCGUC	-3.68 ± 0.17	-1.24 ± 0.13
UUAGAGCAAUAUUACGCAAU	-2.21 ± 0.2	-1.52 ± 0.41
AUGCAGCAAUAUUACGCAGA	-2.98 ± 0.16	-1.71 ± 0.12
ACGUAGCAAUAUUACGGCAU	-1.31 ± 0.1	-0.11 ± 0.099
GGGUAGCAAUAUUACGUCAU	-0.733 ± 0.07	-0.742 ± 0.081
UGUAAGCAAUAUUACGUUCA	-0.719 ± 0.1	-0.118 ± 0.14
AUAAAGCAAUAUUACGCGGA	-1.65 ± 0.083	0.155 ± 0.089
CAAUAGCAAUAUUACGCAUA	-2.99 ± 0.18	-2.08 ± 0.18
UGGAAGCAAUAUUACGAGGA	-2.94 ± 0.4	-2.82 ± 0.4
AACGAGCAAUAUUACGCGCU	-3.43 ± 0.2	-0.902 ± 0.14
CUCAAGCAAUAUUACGCUGA	-3.13 ± 0.18	-2.41 ± 0.2
CUCCAGCAAUAUUACGGCUA	-3.19 ± 0.26	-2.27 ± 0.2
UACGAGCAAUAUUACGUAAA	-3.61 ± 0.29	-2.84 ± 0.26
UAGUAGCAAUAUUACGAUUA	-0.381 ± 0.099	0.0431 ± 0.098
UGGAAGCAAUAUUACGACAA	-1.46 ± 0.14	-1.88 ± 0.17
CACUAGCAAUAUUACGUGCC	-4.04 ± 0.46	-2.17 ± 0.29
GCCAAGCAAUAUUACGCUUG	-3.72 ± 0.12	-2.41 ± 0.14

Sequence	self-splicing fitness (ln) (30 °C)	self-splicing fitness (ln) (37 °C)
UGCAAGCAAUAUUACGACUC	-2.66 ± 0.18	-1.56 ± 0.17
GUCCAGCAAUAUUACGAACA	-1.83 ± 0.15	-0.801 ± 0.12
GCACAGCAAUAUUACGUUGU	-3.71 ± 0.12	-2.74 ± 0.12
GAUAAGCAAUAUUACGCUUA	-3.59 ± 0.31	-2.91 ± 0.23
AACAAGCAAUAUUACGGACG	-1.3 ± 0.061	-0.887 ± 0.086
UCCUAGCAAUAUUACGGCUC		-1.62 ± 0.44
UGACAGCAAUAUUACGCUAC	-2.24 ± 0.43	-1.56 ± 0.26
GGGUAGCAAUAUUACGGCGU	-0.56 ± 0.13	-0.386 ± 0.12
AUUAAGCAAUAUUACGCCUG	-0.765 ± 0.15	-0.543 ± 0.17
AAAUAGCAAUAUUACGGACG	-0.725 ± 0.069	-0.343 ± 0.096
UCCUAGCAAUAUUACGAUAG	-2.89 ± 0.33	-2.14 ± 0.35
CAUAAGCAAUAUUACGACUU	-3.55 ± 0.24	-1.5 ± 0.16
CCGUAGCAAUAUUACGCCAU	-3.26 ± 0.25	-2.77 ± 0.36
CCCAAGCAAUAUUACGACAG	-4.22 ± 0.15	-2.39 ± 0.12
GCUAAGCAAUAUUACGAGUG	-1.09 ± 0.048	-0.811 ± 0.06
AAUGAGCAAUAUUACGGCCU	-1.17 ± 0.17	-1.47 ± 0.21
AUGCAGCAAUAUUACGAUAC	-2.96 ± 0.38	
UUGCAGCAAUAUUACGUAAA	-1.25 ± 0.095	-0.427 ± 0.12
UUUGAGCAAUAUUACGUAGG	-2.52 ± 0.16	-1.32 ± 0.23
AACAAGCAAUAUUACGCCCA	-0.0653 ± 0.094	-0.00342 ± 0.11
CGUAAGCAAUAUUACGGCUA	-2.35 ± 0.41	-1.48 ± 0.33
AGACAGCAAUAUUACGACCU	0.0744 ± 0.084	-0.545 ± 0.093
UAUAAGCAAUAUUACGUCGG	-0.782 ± 0.076	-0.0864 ± 0.098
GCAAAGCAAUAUUACGUAUC	-2.35 ± 0.082	-1.74 ± 0.076
UGAGAGCAAUAUUACGUCUG	-2.76 ± 0.42	-1.88 ± 0.33

Sequence	self-splicing fitness (ln) (30 °C)	self-splicing fitness (ln) (37 °C)
CCAAAGCAAUAUUACGAUAC	-2.15 ± 0.27	
UUGGAGCAAUAUUACGUCGA	-2.6 ± 0.3	0.049 ± 0.27
CGGAAGCAAUAUUACGACGG	-0.101 ± 0.13	-0.695 ± 0.14
UCGUAGCAAUAUUACGCUUC	-3.12 ± 0.48	
GCAUAGCAAUAUUACGGUCC	-1.71 ± 0.098	-1.48 ± 0.11
AUGCAGCAAUAUUACGAAUA	-2.68 ± 0.2	-1.68 ± 0.16
UGAAAGCAAUAUUACGUCCC	-2.54 ± 0.45	
CCUAAGCAAUAUUACGAUCC	-3.83 ± 0.29	
CUGCAGCAAUAUUACGCCAC	-2.82 ± 0.26	-2.82 ± 0.44
UAAUAGCAAUAUUACGACUC	-3.23 ± 0.25	-1.03 ± 0.23
UCUAAGCAAUAUUACGGAUU		-2.31 ± 0.23
CAUCAGCAAUAUUACGUCAU	-3.06 ± 0.1	-1.78 ± 0.12
GUAUAGCAAUAUUACGACGG	-4.18 ± 0.37	-2.33 ± 0.35
GCUGAGCAAUAUUACGGUCA	-2.69 ± 0.15	-2.2 ± 0.14
CAUAAGCAAUAUUACGUCGA	-3.41 ± 0.26	-2.86 ± 0.17
AUGCAGCAAUAUUACGUAUG	-3.15 ± 0.16	-1.09 ± 0.16
UUGAAGCAAUAUUACGUAUU	-2.69 ± 0.12	-0.933 ± 0.12
GAAGAGCAAUAUUACGGGAC	-3.76 ± 0.25	-2.3 ± 0.24
AUGCAGCAAUAUUACGGUGA	-0.911 ± 0.093	-0.872 ± 0.1
GCUAAGCAAUAUUACGCGGA	-2.73 ± 0.2	-1.1 ± 0.15
GAAAAGCAAUAUUACGUCCU	-0.216 ± 0.089	0.514 ± 0.12
GGUUAGCAAUAUUACGUACG	-0.392 ± 0.14	0.0535 ± 0.18
ACCAAGCAAUAUUACGCUGG	-2.75 ± 0.15	-2.72 ± 0.21
CCCUAGCAAUAUUACGCUUU	-4.12 ± 0.22	-2.49 ± 0.18
GCCAAGCAAUAUUACGUCUG	-3.62 ± 0.19	-2.02 ± 0.16

Sequence	self-splicing fitness (ln) (30 °C)	self-splicing fitness (ln) (37 °C)
UGCGAGCAAUAUUACGGCGA	-0.753 ± 0.099	-0.754 ± 0.11
UAAGAGCAAUAUUACGCGUA	-1.55 ± 0.29	0.00439 ± 0.15
CAAUAGCAAUAUUACGCUAG	-2.49 ± 0.15	-1.86 ± 0.19
AUUGAGCAAUAUUACGGUGA	-2.89 ± 0.28	-1.48 ± 0.22
AACUAGCAAUAUUACGCAUG	-1.25 ± 0.083	-0.11 ± 0.086
GCCAAGCAAUAUUACGAUAU	-2.75 ± 0.12	-2.01 ± 0.13
AACAAGCAAUAUUACGUUUG	-2.87 ± 0.096	-2.46 ± 0.12
UCAGAGCAAUAUUACGGCCU	-2.39 ± 0.34	-2.73 ± 0.31
ACACAGCAAUAUUACGUCCC	-1.16 ± 0.098	-0.00572 ± 0.12
UUAGAGCAAUAUUACGGUAA	-1.34 ± 0.086	-0.0767 ± 0.11
GGAAAGCAAUAUUACGAAGU	-2.79 ± 0.16	-1.97 ± 0.18
UACCAGCAAUAUUACGUCCA	-0.321 ± 0.081	0.176 ± 0.091
AGCGAGCAAUAUUACGCAUG	-3.33 ± 0.22	-1.48 ± 0.18
GCGAAGCAAUAUUACGGUAU	-3.35 ± 0.18	-0.774 ± 0.1
UUGCAGCAAUAUUACGCUCU	-1.01 ± 0.12	-0.306 ± 0.13
CUUGAGCAAUAUUACGGAGC		-1.42 ± 0.29
CGAAAGCAAUAUUACGCAAC	-2.4 ± 0.18	-2.39 ± 0.35
UUCUAGCAAUAUUACGCCUA	-1.94 ± 0.29	-0.0729 ± 0.19
UACUAGCAAUAUUACGGGAA	-1.95 ± 0.13	-0.547 ± 0.1
GGCUAGCAAUAUUACGUUUA	-0.381 ± 0.15	-0.882 ± 0.16
GGAUAGCAAUAUUACGCGAA	-1.69 ± 0.29	-1.41 ± 0.42
UCCGAGCAAUAUUACGCUCC	-1.58 ± 0.41	
GUGGAGCAAUAUUACGUGAA		-0.49 ± 0.28
GGGAAGCAAUAUUACGCCCA	-0.527 ± 0.15	-0.717 ± 0.21
